Data taken from the supplement of paper PMC9233669.
Variants at the floor of the assay were thinned out.

Legend:
biotinyl-Phe-oxazolone = experiment: self-aminoacylation, catalytic enhancement (BFO) (fold over background); higher = more active; k-Seq, kA / k0A0; sequences stand for … in GGGAAUGGAUCCACAUCUACGAAUUC…UUCACUGCAGACUUGACGAAGCUG
Outline: (§1)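 Working in 50 μL HEPES/NaCl/KCl/MgCl2/CaCl2 buffer with 5% acetonitrile at pH 6.9–7.0, mutagenized RNA pools (0.43 μM; 21-nt variable region) were reacted with 2–1250 μM of each biotinyl-aminoacyl-oxazolone for 90 minutes at room temperature. Streptavidin capture followed, with quantification by triplicate qPCR and Illumina sequencing. Catalytic enhancement is reported as median kA over the uncatalyzed rate, the low-activity peak of a bimodal Gaussian fit to the data.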

biotinyl-Ile-oxazolone = experiment: self-aminoacylation, catalytic enhancement (BIO) (fold over background); higher = more active; k-Seq, kA / k0A0; sequences stand for … in GGGAAUGGAUCCACAUCUACGAAUUC…UUCACUGCAGACUUGACGAAGCUG
Outline: as §1

biotinyl-Met-oxazolone = experiment: self-aminoacylation, catalytic enhancement (BMO) (fold over background); higher = more active; k-Seq, kA / k0A0; sequences stand for … in GGGAAUGGAUCCACAUCUACGAAUUC…UUCACUGCAGACUUGACGAAGCUG
Outline: as §1

biotinyl-Val-oxazolone = experiment: self-aminoacylation, catalytic enhancement (BVO) (fold over background); higher = more active; k-Seq, kA / k0A0; sequences stand for … in GGGAAUGGAUCCACAUCUACGAAUUC…UUCACUGCAGACUUGACGAAGCUG
Outline: as §1

biotinyl-Leu-oxazolone = experiment: self-aminoacylation, catalytic enhancement (BLO) (fold over background); higher = more active; k-Seq, kA / k0A0; sequences stand for … in GGGAAUGGAUCCACAUCUACGAAUUC…UUCACUGCAGACUUGACGAAGCUG
Outline: as §1

biotinyl-Trp-oxazolone = experiment: self-aminoacylation, catalytic enhancement (BWO) (fold over background); higher = more active; k-Seq, kA / k0A0; sequences stand for … in GGGAAUGGAUCCACAUCUACGAAUUC…UUCACUGCAGACUUGACGAAGCUG
Outline: as §1

Sequence	self-aminoacylation (biotinyl-Phe-oxazolone)	self-aminoacylation (biotinyl-Ile-oxazolone)	self-aminoacylation (biotinyl-Met-oxazolone)	self-aminoacylation (biotinyl-Val-oxazolone)	self-aminoacylation (biotinyl-Leu-oxazolone)	self-aminoacylation (biotinyl-Trp-oxazolone)
CUACUUCUAACUAUCGGUCUG [Fam1A.1 aminoacylation ribozyme variant]	0.796	0.734	0.766	0.841	0.628	0.65
CUACUUCUUACAAUCGGUCUG [Fam1A.1 aminoacylation ribozyme variant]	0.695	0.767	0.812	0.707	0.624	0.524
CUACUUGAAAAAAUCGGUCUG [Fam1A.1 aminoacylation ribozyme variant]	0.472	0.862	0.781	0.822	0.801	0.84
CUACUUGAAACAAUAGGUCUG [Fam1A.1 aminoacylation ribozyme variant]	0.837	1.06	1.09	1.05	1.13	0.841
CUACUUGAAACAAUCGGUAUG [Fam1A.1 aminoacylation ribozyme variant]	0.5	0.654	0.67	0.699	0.838	0.504
CUACUUGAAACAAUCGGUCGG [Fam1A.1 aminoacylation ribozyme variant]	0.733	0.997	0.994	0.949	1.13	0.589
CUACUUGAAAUAAUCGGUCUG [Fam1A.1 aminoacylation ribozyme variant]	0.723	0.785	0.801	0.784	0.68	0.619
CUACUUGAACCAAUCGGUCUG [Fam1A.1 aminoacylation ribozyme variant]	0.74	0.821	0.841	0.879	0.941	0.582
CUACUUUAAACAAUCGAUCUG [Fam1A.1 aminoacylation ribozyme variant]	0.815	0.768	0.675	0.741	0.683	0.852
CUACUUUAAACAAUCGGUCAG [Fam1A.1 aminoacylation ribozyme variant]	0.862	0.617	0.716	0.655	0.588	0.417
CUAGACUUCAAGCAAUCGGUC [Fam1B.1 aminoacylation ribozyme variant]	34.1	0.981	1.05	0.979	1.37	16.2
CUAGAUCAAACAAUCGGUCUG [Fam1A.1 aminoacylation ribozyme variant]	2.24	0.703	0.578	0.798	0.708	1.22
CUAGUUCAAACAAUAGGUCUG [Fam1A.1 aminoacylation ribozyme variant]	0.923	1.04	0.949	0.952	1.09	0.721
CUAGUUCAAACAAUCGGGCUG [Fam1A.1 aminoacylation ribozyme variant]	2.64	1.54	1.4	1.42	1.79	2.72
CUAGUUCAAACAAUCGGUCUA [Fam1A.1 aminoacylation ribozyme variant]	2.81	0.813	0.777	0.759	0.647	1.43
CUAGUUCAACCAAUCGGUCUG [Fam1A.1 aminoacylation ribozyme variant]	3.36	1	0.955	0.913	1.06	2.82
CUAGUUGAAACAAUCGGUCUG [Fam1A.1 aminoacylation ribozyme variant]	0.861	0.923	0.974	0.828	0.841	0.834
CUAUACUUCAAGCAAUCGGUC [Fam1B.1 aminoacylation ribozyme variant]	21.3	0.782	0.837	0.936	1.06	9.69
CUAUCUCAAACAAUCGGUCUG [Fam1A.1 aminoacylation ribozyme variant]	1.87	0.789	0.856	0.781	0.628	1.35
CUAUUUCAAACAAGCGGUCUG [Fam1A.1 aminoacylation ribozyme variant]	0.738	1.01	0.882	0.933	1.02	0.77
CUAUUUCAAACACUCGGUCUG [Fam1A.1 aminoacylation ribozyme variant]	1.36	0.995	0.95	0.921	0.875	0.925
